US20260242735A1 (UNIVERSIT T BASEL, published 2026)

How the values were obtained:
human CD33 H57A = human CD33 H57A (human, UniProt P20138 18-364); assay: alanine scan, flow cytometry, HEK293-T;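 further: antibody binding to each alanine-substituted CD33 mutant expressed transiently in HEK293-T, read as fluorescence minus background, mean of duplicates, relative to wild-type CD33 set as 100%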
human CD33 E63A = human CD33 E63A (human, UniProt P20138 18-364); assay: alanine scan, flow cytometry, HEK293-T;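 further: antibody binding to each alanine-substituted CD33 mutant expressed transiently in HEK293-T, read as fluorescence minus background, mean of duplicates, relative to wild-type CD33 set as 100%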
human CD33 R69A = human CD33 R69A (human, UniProt P20138 18-364); assay: alanine scan, flow cytometry, HEK293-T;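 further: antibody binding to each alanine-substituted CD33 mutant expressed transiently in HEK293-T, read as fluorescence minus background, mean of duplicates, relative to wild-type CD33 set as 100%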
human CD33 R69A, sequence (P20138 18-364 R69A limits assumed): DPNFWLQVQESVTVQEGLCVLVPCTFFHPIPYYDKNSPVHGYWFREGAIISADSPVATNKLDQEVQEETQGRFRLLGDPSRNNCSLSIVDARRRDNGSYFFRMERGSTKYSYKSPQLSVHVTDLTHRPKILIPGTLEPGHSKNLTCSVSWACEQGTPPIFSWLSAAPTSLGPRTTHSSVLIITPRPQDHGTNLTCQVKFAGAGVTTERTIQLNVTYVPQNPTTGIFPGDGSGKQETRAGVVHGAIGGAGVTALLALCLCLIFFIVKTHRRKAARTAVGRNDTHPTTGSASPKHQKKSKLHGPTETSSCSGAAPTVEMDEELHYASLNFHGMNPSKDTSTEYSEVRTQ

human CD33 P72A = human CD33 P72A (human, UniProt P20138 18-364); assay: alanine scan, flow cytometry, HEK293-T;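 further: antibody binding to each alanine-substituted CD33 mutant expressed transiently in HEK293-T, read as fluorescence minus background, mean of duplicates, relative to wild-type CD33 set as 100%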
human CD33 P72A, sequence (P20138 18-364 P72A limits assumed): as the sequence (P20138 18-364 R69A limits assumed) above, with A52R, P55A counted along it

human CD33 N76A = human CD33 N76A (human, UniProt P20138 18-364); assay: alanine scan, flow cytometry, HEK293-T
human CD33 N76A, sequence (P20138 18-364 N76A limits assumed): as the sequence (P20138 18-364 R69A limits assumed) above, with A52R, N59A counted along it

human CD33 D79A = human CD33 D79A (human, UniProt P20138 18-364); assay: alanine scan, flow cytometry, HEK293-T
human CD33 E81A = human CD33 E81A (human, UniProt P20138 18-364); assay: alanine scan, flow cytometry, HEK293-T
human CD33 Q83A = human CD33 Q83A (human, UniProt P20138 18-364); assay: alanine scan, flow cytometry, HEK293-T
human CD33 R91A = human CD33 R91A (human, UniProt P20138 18-364); assay: alanine scan, flow cytometry, HEK293-T
human CD33 S102A = human CD33 S102A (human, UniProt P20138 18-364); assay: alanine scan, flow cytometry, HEK293-T
human CD33 I105A = human CD33 I105A (human, UniProt P20138 18-364); assay: alanine scan, flow cytometry, HEK293-T
human CD33 I105A, sequence (P20138 18-364 I105A limits assumed): as the sequence (P20138 18-364 R69A limits assumed) above, with A52R, I88A counted along it

human CD33 V106A = human CD33 V106A (human, UniProt P20138 18-364); assay: alanine scan, flow cytometry, HEK293-T
human CD33 V106A, sequence (P20138 18-364 V106A limits assumed): as the sequence (P20138 18-364 R69A limits assumed) above, with A52R, V89A counted along it

human CD33 Y116A = human CD33 Y116A (human, UniProt P20138 18-364); assay: alanine scan, flow cytometry, HEK293-T
human CD33 L141A = target: T1, human CD33 L141A (human, UniProt P20138 18-364); assay: alanine scan, flow cytometry, HEK293-T
T1 construct: alanine scan clone, transfected HEK293-T

human CD33 T142A = target: T2, human CD33 T142A (human, UniProt P20138 18-364); assay: alanine scan, flow cytometry, HEK293-T
T2 construct: alanine scan clone, transfected HEK293-T
T2 sequence (P20138 18-364 T142A limits assumed): as the sequence (P20138 18-364 R69A limits assumed) above, with A52R, T125A counted along it

human CD33 H143A = target: T3, human CD33 H143A (human, UniProt P20138 18-364); assay: alanine scan, flow cytometry, HEK293-T
T3 construct: alanine scan clone, transfected HEK293-T

human CD33 K146A = target: T4, human CD33 K146A (human, UniProt P20138 18-364); assay: alanine scan, flow cytometry, HEK293-T
T4 construct: alanine scan clone, transfected HEK293-T
T4 sequence (P20138 18-364 K146A limits assumed): as the sequence (P20138 18-364 R69A limits assumed) above, with A52R, K129A counted along it

human CD33 P150A = target: T5, human CD33 P150A (human, UniProt P20138 18-364); assay: alanine scan, flow cytometry, HEK293-T
T5 construct: alanine scan clone, transfected HEK293-T
T5 sequence (P20138 18-364 P150A limits assumed): as the sequence (P20138 18-364 R69A limits assumed) above, with A52R, P133A counted along it

human CD33 G151A = target: T6, human CD33 G151A (human, UniProt P20138 18-364); assay: alanine scan, flow cytometry, HEK293-T
T6 construct: alanine scan clone, transfected HEK293-T

human CD33 P175A = target: T7, human CD33 P175A (human, UniProt P20138 18-364); assay: alanine scan, flow cytometry, HEK293-T
T7 construct: alanine scan clone, transfected HEK293-T

human CD33 L180A = target: T8, human CD33 L180A (human, UniProt P20138 18-364); assay: alanine scan, flow cytometry, HEK293-T
T8 construct: alanine scan clone, transfected HEK293-T
T8 sequence (P20138 18-364 L180A limits assumed): as the sequence (P20138 18-364 R69A limits assumed) above, with A52R, L163A counted along it

human CD33 P184A = target: T9, human CD33 P184A (human, UniProt P20138 18-364); assay: alanine scan, flow cytometry, HEK293-T
T9 construct: alanine scan clone, transfected HEK293-T
T9 sequence (P20138 18-364 P184A limits assumed): as the sequence (P20138 18-364 R69A limits assumed) above, with A52R, P167A counted along it

human CD33 T191A = target: T10, human CD33 T191A (human, UniProt P20138 18-364); assay: alanine scan, flow cytometry, HEK293-T
T10 construct: alanine scan clone, transfected HEK293-T

human CD33 K52S = human CD33 K52S (human, UniProt P20138 18-364); assay: flow cytometry, transfected cells, IgG;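 further: CD33 point mutants transiently expressed in HEK293-T cells, antibody binding read by fluorescence, background subtracted and normalized to wild-type CD33 as 100%, duplicates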
Description: (§1) An alanine scan on human CD33 was performed to the determine the residues on CD33 that are involved in binding to the antibodies investigated. […] Briefly, a mutation library of CD33 was created by high-throughput, site-directed mutagenesis. Each residue was individually mutated to alanine, with alanine codons mutated to serine. The mutant library was arrayed in 384-well microplates and transiently transfected into HEK293-T. Following transfection, cells were incubated with the indicated antibodies (IgG or Fab) at concentrations pre-determined using an independent immunofluorescence titration curve on wild type CD33. […] Binding of each antibody to each mutant clone was determined in duplicates. For each point, background fluorescence was subtracted from the raw data, which were then normalized to antibody reactivity with wild type CD33.
(§2) Antibodies were screened for binding to the human CD33 variants in IgG format. […] For each mutation, background fluorescence was subtracted from the raw data, which were then normalized to antibody reactivity with wild-type CD33.

human CD33 K52T = human CD33 K52T (human, UniProt P20138 18-364); assay: flow cytometry, transfected cells, IgG;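 further: CD33 point mutants transiently expressed in HEK293-T cells, antibody binding read by fluorescence, background subtracted and normalized to wild-type CD33 as 100%, duplicates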
human CD33 K52T, sequence (P20138 18-364 K52T limits assumed): as the sequence (P20138 18-364 R69A limits assumed) above, with K35T, A52R counted along it
Description: as §1, §2

human CD33 M120V = human CD33 M120V (human, UniProt P20138 18-364); assay: flow cytometry, transfected cells, IgG;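 further: CD33 point mutants transiently expressed in HEK293-T cells, antibody binding read by fluorescence, background subtracted and normalized to wild-type CD33 as 100%, duplicates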
Description: as §1, §2

human CD33 R122T = human CD33 R122T (human, UniProt P20138 18-364); assay: flow cytometry, transfected cells, IgG;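 further: CD33 point mutants transiently expressed in HEK293-T cells, antibody binding read by fluorescence, background subtracted and normalized to wild-type CD33 as 100%, duplicates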
human CD33 R122T, sequence (P20138 18-364 R122T limits assumed): as the sequence (P20138 18-364 R69A limits assumed) above, with A52R, R105T counted along it
Description: as §1, §2

human CD33 Y127H = human CD33 Y127H (human, UniProt P20138 18-364); assay: flow cytometry, transfected cells, IgG
human CD33 Y127H, sequence (P20138 18-364 Y127H limits assumed): as the sequence (P20138 18-364 R69A limits assumed) above, with A52R, Y110H counted along it
Description: as §1, §2

human CD33 Y129S = human CD33 Y129S (human, UniProt P20138 18-364); assay: flow cytometry, transfected cells, IgG
Description: as §1, §2

human CD33 S131G = human CD33 S131G (human, UniProt P20138 18-364); assay: flow cytometry, transfected cells, IgG
Description: as §1, §2

human CD33 P132S = human CD33 P132S (human, UniProt P20138 18-364); assay: flow cytometry, transfected cells, IgG
Description: as §1, §2

human CD33 P132L = human CD33 P132L (human, UniProt P20138 18-364); assay: flow cytometry, transfected cells, IgG
Description: as §1, §2

human CD33 P132Y = human CD33 P132Y (human, UniProt P20138 18-364); assay: flow cytometry, transfected cells, IgG
Description: as §1, §2

human CD33 P132K = human CD33 P132K (human, UniProt P20138 18-364); assay: flow cytometry, transfected cells, IgG
Description: as §1, §2

human CD33 P132N = human CD33 P132N (human, UniProt P20138 18-364); assay: flow cytometry, transfected cells, IgG
human CD33 P132N, sequence (P20138 18-364 P132N limits assumed): as the sequence (P20138 18-364 R69A limits assumed) above, with A52R, P115N counted along it
Description: as §1, §2

human CD33 L134I = human CD33 L134I (human, UniProt P20138 18-364); assay: flow cytometry, transfected cells, IgG
Description: as §1, §2

human CD33 L134M = human CD33 L134M (human, UniProt P20138 18-364); assay: flow cytometry, transfected cells, IgG
Description: as §1, §2

Binder | Mean % WT Binding (human CD33 H57A) | Mean % WT Binding (human CD33 E63A) | Mean % WT Binding (human CD33 R69A) | Mean % WT Binding (human CD33 P72A) | Mean % WT Binding (human CD33 N76A) | Mean % WT Binding (human CD33 D79A) | Mean % WT Binding (human CD33 E81A) | Mean % WT Binding (human CD33 Q83A) | Mean % WT Binding (human CD33 R91A) | Mean % WT Binding (human CD33 S102A) | Mean % WT Binding (human CD33 I105A) | Mean % WT Binding (human CD33 V106A) | Mean % WT Binding (human CD33 Y116A) | Mean % WT Binding (human CD33 L141A) | Mean % WT Binding (human CD33 T142A) | Mean % WT Binding (human CD33 H143A) | Mean % WT Binding (human CD33 K146A) | Mean % WT Binding (human CD33 P150A) | Mean % WT Binding (human CD33 G151A) | Mean % WT Binding (human CD33 P175A) | further results
Refmab #5 (antibody, V domains shown, Full-length format is human IgG1 Fc silent (PG-LALA); also made as Fab; The alanine scan used IgG or Fab) VH: QVQLVQSGAEVKKPGASVKVSCKASGYTFTNYDINWVRQAPGQGLEWIGWIYPGDGSTKYNEKFKAKATLTADTSTSTAYMELRSLRSDDTAVYYCASGYEDAMDYWGQGTTVTVSS VL: DIQMTQSPSSLSASVGDRVTINCKASQDINSYLSWFQQKPGKAPKTLIYRANRLVDGVPSRFSGSGSGQDYTLTISSLQPEDFATYYCLQYDEFPLTFGGGTKVEIK | 121 % WT binding | 140 % WT binding | 164 % WT binding | 116 % WT binding | 124 % WT binding | 91.3 % WT binding | 140 % WT binding | 97 % WT binding | 101 % WT binding | 154 % WT binding | 41.7 % WT binding | 106 % WT binding | 16 % WT binding |  |  |  |  |  |  |  | 
Refmab #5 (antibody, V domains shown, The alanine scan used IgG or Fab) VH: QVQLVQSGAEVKKPGASVKVSCKASGYTFTNYDINWVRQAPGQGLEWIGWIYPGDGSTKYNEKFKAKATLTADTSTSTAYMELRSLRSDDTAVYYCASGYEDAMDYWGQGTTVTVSS VL: DIQMTQSPSSLSASVGDRVTINCKASQDINSYLSWFQQKPGKAPKTLIYRANRLVDGVPSRFSGSGSGQDYTLTISSLQPEDFATYYCLQYDEFPLTFGGGTKVEIK |  |  |  |  |  |  |  |  |  |  |  |  |  | 94.5 % WT binding | 101 % WT binding | 128 % WT binding | 149 % WT binding | 132 % WT binding | 99.6 % WT binding | 130 % WT binding | Mean % WT Binding (human CD33 L180A): 118 % WT binding; Mean % WT Binding (human CD33 P184A): 107 % WT binding; Mean % WT Binding (human CD33 T191A): 115 % WT binding
Refmab #5 (antibody, human IgG1, V domains shown) VH: QVQLVQSGAEVKKPGASVKVSCKASGYTFTNYDINWVRQAPGQGLEWIGWIYPGDGSTKYNEKFKAKATLTADTSTSTAYMELRSLRSDDTAVYYCASGYEDAMDYWGQGTTVTVSS VL: DIQMTQSPSSLSASVGDRVTINCKASQDINSYLSWFQQKPGKAPKTLIYRANRLVDGVPSRFSGSGSGQDYTLTISSLQPEDFATYYCLQYDEFPLTFGGGTKVEIK |  |  |  |  |  |  |  |  |  |  |  |  |  |  |  |  |  |  |  |  | Mean % WT Binding (human CD33 K52S): 3.8%; Mean % WT Binding (human CD33 K52T): 5%; Mean % WT Binding (human CD33 M120V): 85.9%; Mean % WT Binding (human CD33 R122T): 83.2%; Mean % WT Binding (human CD33 Y127H): 97.2%; Mean % WT Binding (human CD33 Y129S): 94.7%; Mean % WT Binding (human CD33 S131G): 97.1%; Mean % WT Binding (human CD33 P132S): 105%; Mean % WT Binding (human CD33 P132L): 89.6%; Mean % WT Binding (human CD33 P132Y): 84.3%; Mean % WT Binding (human CD33 P132K): 97.1%; Mean % WT Binding (human CD33 P132N): 101%; Mean % WT Binding (human CD33 L134I): 92.9%; Mean % WT Binding (human CD33 L134M): 86.1%
Refmab #6 (antibody, V domains shown, Full-length format is human IgG1 Fc silent (PG-LALA); also made as Fab; The alanine scan used IgG or Fab) VH: QVQLQQPGAEVVKPGASVKMSCKASGYTFTSYYIHWIKQTPGQGLEWVGVIYPGNDDISYNQKFQGKATLTADKSSTTAYMQLSSLTSEDSAVYYCAREVRLRYFDVWGQGTTVTVSS VL: EIVLTQSPGSLAVSPGERVTMSCKSSQSVFFSSSQKNYLAWYQQIPGQSPRLLIYWASTRESGVPDRFTGSGSGTDFTLTISSVQPEDLAIYYCHQYLSSRTFGQGTKLEIK | 63 % WT binding | 90.9 % WT binding | 101 % WT binding | 92.3 % WT binding | 86.8 % WT binding | 78.2 % WT binding | 88.1 % WT binding | 108 % WT binding | 91.4 % WT binding | 85.1 % WT binding | 25.5 % WT binding | 125 % WT binding | 5 % WT binding |  |  |  |  |  |  |  | 
Refmab #6 (antibody, human IgG1, V domains shown) VH: QVQLQQPGAEVVKPGASVKMSCKASGYTFTSYYIHWIKQTPGQGLEWVGVIYPGNDDISYNQKFQGKATLTADKSSTTAYMQLSSLTSEDSAVYYCAREVRLRYFDVWGQGTTVTVSS VL: EIVLTQSPGSLAVSPGERVTMSCKSSQSVFFSSSQKNYLAWYQQIPGQSPRLLIYWASTRESGVPDRFTGSGSGTDFTLTISSVQPEDLAIYYCHQYLSSRTFGQGTKLEIK |  |  |  |  |  |  |  |  |  |  |  |  |  |  |  |  |  |  |  |  | Mean % WT Binding (human CD33 K52S): 107%; Mean % WT Binding (human CD33 K52T): 106%; Mean % WT Binding (human CD33 M120V): 97%; Mean % WT Binding (human CD33 R122T): 114%; Mean % WT Binding (human CD33 Y127H): 112%; Mean % WT Binding (human CD33 Y129S): 99.6%; Mean % WT Binding (human CD33 S131G): 101%; Mean % WT Binding (human CD33 P132S): 3.2%; Mean % WT Binding (human CD33 P132L): 6.1%; Mean % WT Binding (human CD33 P132Y): 1.1%; Mean % WT Binding (human CD33 P132K): 2.2%; Mean % WT Binding (human CD33 P132N): 2.2%; Mean % WT Binding (human CD33 L134I): 89.4%; Mean % WT Binding (human CD33 L134M): 99.5%
Refmab #6 (antibody, V domains shown, The alanine scan used IgG or Fab) VH: QVQLQQPGAEVVKPGASVKMSCKASGYTFTSYYIHWIKQTPGQGLEWVGVIYPGNDDISYNQKFQGKATLTADKSSTTAYMQLSSLTSEDSAVYYCAREVRLRYFDVWGQGTTVTVSS VL: EIVLTQSPGSLAVSPGERVTMSCKSSQSVFFSSSQKNYLAWYQQIPGQSPRLLIYWASTRESGVPDRFTGSGSGTDFTLTISSVQPEDLAIYYCHQYLSSRTFGQGTKLEIK |  |  |  |  |  |  |  |  |  |  |  |  |  | 97.5 % WT binding | 91.6 % WT binding | 97.5 % WT binding | 116 % WT binding | 106 % WT binding | 91.1 % WT binding | 98.6 % WT binding | Mean % WT Binding (human CD33 L180A): 97.1 % WT binding; Mean % WT Binding (human CD33 P184A): 92.2 % WT binding; Mean % WT Binding (human CD33 T191A): 88.5 % WT binding
